Experimental data taken from publication PMC8489928 (mAbs, 2021).

What was measured:
Mouse CD96 D1 (mouse) = Mouse CD96 D1 (mouse) (UniProt Q3U0X8); experiment: SEC-MALS
Human CD96 D1 (human) = Human CD96 D1 (human) (UniProt P40200); experiment: SEC-MALS
SEC-MALS = biological target: the molecule itself; experiment: SEC-MALS
Mouse CD96 D1 [1] = biological target: T1, Mouse CD96 D1 (mouse, UniProt Q3U0X8); experiment: SPR
Mouse CD96 D1 [2] = biological target: T1, Mouse CD96 D1; experiment: SEC-MALS

Mouse CD155 (ligand)
stoichiometry N (Mouse CD96 D1 (mouse)): 1

Human CD155 (from UniProt P15151 21-417) (ligand)
stoichiometry N (Human CD96 D1 (human)): 1

B1: Human CD96 D1-D3 (domain or fragment, UniProt P40200 22-519, looked up)
chain: VWEKTVNTEENVYATLGSDVNLTCQTQTVGFFVQMQWSKVTNKIDLIAVYHPQYGFYCAYGRPCESLVTFTETPENGSKWTLHLRNMSCSVSGRYECMLVLYPEGIQTKIYNLLIQTHVTADEWNSNHTIEIEINQTLEIPCFQNSSSKISSEFTYAWSVENSSTDSWVLLSKGIKEDNGTQETLISQNHLISNSTLLKDRVKLGTDYRLHLSPVQIFDDGRKFSCHIRVGPNKILRSSTTVKVFAKPEIPVIVENNSTDVLVERRFTCLLKNVFPKANITWFIDGSFLHDEKEGIYITNEERKGKDGFLELKSVLTRVHSNKPAQSDNLTIWCMALSPVPGNKVWNISSEKITFLLGSEISSTDPPLSVTESTLDTQPSPASSVSPARYPATSSVTLVDVSALRPNTTPQPSNSSMTTRGFNYPWTSSGTDTKKSVSRIPSETYSSSPSGAGSTLHDNVFTSTARAFSEVPTTANGSTKTNHVHITGIVVNKPKDGM
stoichiometry N (SEC-MALS): 2

B2: Human CD96 D1 (domain or fragment, UniProt P40200 22-140, looked up)
chain: VWEKTVNTEENVYATLGSDVNLTCQTQTVGFFVQMQWSKVTNKIDLIAVYHPQYGFYCAYGRPCESLVTFTETPENGSKWTLHLRNMSCSVSGRYECMLVLYPEGIQTKIYNLLIQTHV
stoichiometry N (SEC-MALS): 2

B3: mCD96-A heavy-chain G56K (Fab, V domains shown)
VH: QVQLKESGPGLVQPSQTLSLTCTVSGLSLTTNSVSWIRQPPGKGLEWMGVIWSNGKTDYNSDIKSRLSISRDTSKSQVFLKMNSLQTEDTAMYFCARNFPYPGINFDWGQGVMVTVSS
VL: QAVVTQESALTTLPGGTVTLTCHSSTGAVTTSNYANWIQEKADHSFTAILGGTSNRAPGTPARFSGSLLEGKAALTITGAQVEDEATYFCSLWYSGHLIFGGGTKLTVK
binding result (Mouse CD96 D1 [1]): binds

B4: mCD96-A heavy-chain F101M (Fab, V domains shown)
VH: QVQLKESGPGLVQPSQTLSLTCTVSGLSLTTNSVSWIRQPPGKGLEWMGVIWSNGGTDYNSDIKSRLSISRDTSKSQVFLKMNSLQTEDTAMYFCARNFPYPGINMDWGQGVMVTVSS
VL: QAVVTQESALTTLPGGTVTLTCHSSTGAVTTSNYANWIQEKADHSFTAILGGTSNRAPGTPARFSGSLLEGKAALTITGAQVEDEATYFCSLWYSGHLIFGGGTKLTVK
binding result (Mouse CD96 D1 [1]): binds

B5: mCD96-A light-chain G50H (Fab, V domains shown)
VH: QVQLKESGPGLVQPSQTLSLTCTVSGLSLTTNSVSWIRQPPGKGLEWMGVIWSNGGTDYNSDIKSRLSISRDTSKSQVFLKMNSLQTEDTAMYFCARNFPYPGINFDWGQGVMVTVSS
VL: QAVVTQESALTTLPGGTVTLTCHSSTGAVTTSNYANWIQEKADHSFTAILGHTSNRAPGTPARFSGSLLEGKAALTITGAQVEDEATYFCSLWYSGHLIFGGGTKLTVK
binding result (Mouse CD96 D1 [1]): binds

B6: mCD96-A Fab (Fab, V domains shown)
VH: QVQLKESGPGLVQPSQTLSLTCTVSGLSLTTNSVSWIRQPPGKGLEWMGVIWSNGGTDYNSDIKSRLSISRDTSKSQVFLKMNSLQTEDTAMYFCARNFPYPGINFDWGQGVMVTVSS
VL: QAVVTQESALTTLPGGTVTLTCHSSTGAVTTSNYANWIQEKADHSFTAILGGTSNRAPGTPARFSGSLLEGKAALTITGAQVEDEATYFCSLWYSGHLIFGGGTKLTVK
stoichiometry N (Mouse CD96 D1 [2]): 1

B7: mCD96-A-7 Fab (Fab, V domains shown)
VH: QVQLKESGPGLVQPSQTLSLTCTVSGLSLTTNSVSWIRQPPGKGLEWMGVIWSNGKTDYNSDIKSRLSISRDTSKSQVFLKMNSLQTEDTAMYFCARNFPYPGINMDWGQGVMVTVSS
VL: QAVVTQESALTTLPGGTVTLTCHSSTGAVTTSNYANWIQEKADHSFTAILGHTSNRAPGTPARFSGSLLEGKAALTITGAQVEDEATYFCSLWYSGHLIFGGGTKLTVK
stoichiometry N (Mouse CD96 D1 [2]): 1

B8: Mouse CD96 D1-D3 (domain or fragment, UniProt Q3U0X8 22-536, looked up)
chain: VWEELFNVGDDVYALPGSDINLTCQTKEKNFLVQMQWSKVTDKNDMIALYHPQYGLYCGQEHACESQVAATETEKGVTNWTLYLRNISSALGGKYECIFTLYPEGIKTTVYNLIVEPYTQDEHNYTIEIETNRTLEIPCFQNTSSEIPPRFTFSWLVEKDGVEEVLFTHHHHVNNSTSFKGRIRLGGDYRLHLSPVQIQDDGRTFSCHLTVNPLKAWKMSTTVKVFAKPEILMTVENSTMDVLGERVFTCLLKNVFPKANITWFIDGRFLQGNEEGIYITNEEKNCSSGFWELKSVLTRMHSGPSQSNNMTAWCMALSPGPRNKMWNTSSQPITVSFDSVIAPTKHLPTVTGSTLGTQPFSDAGVSPTGYLATPSVTIVDENGLTPDATPQTSNSSMTTKDGNYLEASSGTDAKNSSRAAASSKSGSWPFPFTSPPEWHSLPGTSTGPQEPDSPVSWIPSEVHTSAPLDASLAPHDTIISTTTEFPNVLTTANGTTKIDHGPITSIIVNQPSDGM
stoichiometry N (SEC-MALS): 2

B9: Mouse CD96 D1 (domain or fragment, UniProt Q3U0X8 22-134, looked up)
chain: VWEELFNVGDDVYALPGSDINLTCQTKEKNFLVQMQWSKVTDKNDMIALYHPQYGLYCGQEHACESQVAATETEKGVTNWTLYLRNISSALGGKYECIFTLYPEGIKTTVYNL
stoichiometry N (SEC-MALS): 2
